Usually stoichiometry N stands for a count of units in the complex or per binding partner. One may read the kcat as the maximal rate divided by the concentration of active sites. Usually kcat/Km stands for the turnover number divided by the Michaelis constant.

These results are taken from article PMC12421950, “Structural insights into manganese-dependent arylsulfatase from Enterococcus faecium and its catalytic promiscuity” (mBio, 2025).

In data set [1] the target is T1, EfAS (Enterococcus faecium, UniProt I3U6E8).
T1 construct: gene HMPREF0351_12962; synthetic codon-optimised gene in pSMT3, E. coli BL21(DE3); His6-SUMO tag removed by Ulp1; homotetramer, 323 kDa by SEC; residues 9-488 modelled; C61 partly oxidised to formylglycine
T1 sequence (I3U6E8 1-491 limits assumed): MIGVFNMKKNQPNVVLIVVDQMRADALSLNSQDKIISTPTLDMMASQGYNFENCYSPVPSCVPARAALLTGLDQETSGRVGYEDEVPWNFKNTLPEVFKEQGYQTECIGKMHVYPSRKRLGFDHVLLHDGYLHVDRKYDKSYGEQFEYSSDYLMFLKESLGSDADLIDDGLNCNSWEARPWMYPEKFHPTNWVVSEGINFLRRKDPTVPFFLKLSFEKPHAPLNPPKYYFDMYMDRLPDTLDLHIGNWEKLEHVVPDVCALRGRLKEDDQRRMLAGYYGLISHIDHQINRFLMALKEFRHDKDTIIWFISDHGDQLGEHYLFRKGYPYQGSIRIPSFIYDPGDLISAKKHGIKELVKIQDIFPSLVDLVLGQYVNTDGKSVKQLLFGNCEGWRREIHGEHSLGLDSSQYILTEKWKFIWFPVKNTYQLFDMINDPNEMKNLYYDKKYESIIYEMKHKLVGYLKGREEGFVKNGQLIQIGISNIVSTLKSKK
In words: p-nitrophenol colorimetric assay at […] nm, Lineweaver-Burk. The note with it: read-out: Kinetic parameters / Km (×10^-3 M); 50 mM sodium acetate pH 4.5, 1 mM MnCl2, 37 °C. It is filed as biochemical.

Data set [2] has as its target arylsulfatase from Enterococcus faecium (EfAS), wild type (Enterococcus faecium). Briefly: crystal structure; vapor diffusion at 17°C, 0.1 M sodium cacodylate pH 6.4, 8% PEG3350, 0.2 M MnCl2; space group P42(1)2, two molecules in the asymmetric unit, tetramer through symmetry-related operations.
Substrate in data set [3]: O=[N+]([O-])c1ccc(OP(=O)(O)O)cc1
In words: purified protein. Type of data set: biochemical, Enterococcus faecium. The following applies: 50 mM sodium acetate pH 4.5, 1 mM MnCl2, 37 °C.

Substrate in data set [4]: O=[N+]([O-])c1ccc(OS(=O)(=O)O)cc1
In words: purified protein. The following applies: 50 mM sodium acetate pH 4.5, 1 mM MnCl2, 37 °C. Type of data set: biochemical, Enterococcus faecium.

In the case of `O=[N+]([O-])c1ccc(OP(=O)(O)c2ccccc2)cc1` [p-nitrophenyl phenylphosphonate], the Km in data set [1] turned out to be 1410 µM.

In data set [2], “arylsulfatase from Enterococcus faecium (EfAS), wild type (enzyme)” yielded a stoichiometry N of 4.

B1: EfAS (Enterococcus faecium DO) (protein)
chain: T1 sequence (I3U6E8 1-491 limits assumed)
notes: synthetic codon-optimised gene in pSMT3, E. coli BL21(DE3); His6-SUMO tag removed by Ulp1; homotetramer, 323 kDa by SEC; residues 9-488 modelled; C61 partly oxidised to formylglycine
With B1, in data set [3], the Km came to 1285 µM, the kcat stood at 0.0318 s⁻¹ and the kcat/Km amounted to 24.8 M⁻¹ s⁻¹. In data set [4], the Km was 677 µM, the kcat was 0.0831 s⁻¹ and the kcat/Km is 123 M⁻¹ s⁻¹.
